# Measurements: IntAct's records for PubMed 17187077
# B1: Nuclear receptor subfamily 2 group C member 1 (Mus musculus), Q505F1 (parent)
# chain: MATIEEIAHQIIDQQMGEIVTEQQTGQKIQIVTALDHSTQGKQFILANHEGSTPGKVFLTTPDAAGVNQLFFTSPDLSAPHLQLLTEKSPDQGPNKVFDLCVVCGDKASGRHYGAITCEGCKGFFKRSIRKNLVYSCRGSKDCVINKHHRNRCQYCRLQRCIAFGMKQDSVQCERKPIEVSREKSSNCAASTEKIYIRKDLRSPLAATPTFVTDSETARSAGLLDSGMFVNIHPSGIKTEPAMLMAPDKAESCQGDLSTLASVVTSLANLGKAKDLSHCGGDMPVVQSLRNGDTSFGAFHHDIQTNGDVSRAFDTLAKALTPGESSACQSPEEGMEGSPHLIAGEPSFVEKEGPLLSESHVAFRLTMPSPMPEYLNVHYIGESASRLLFLSMHWALSIPSFQALGQENSISLVKAYWNELFTLGLAQCWQVMNVATILATFVNCLHSSLQQDKMSPERRKSLMEHIFKLQEFCNSMVKLCIDGHEYAYLKAIVLFSPDHPGLENMELIERFQEKAYVEFQDYITRTYPDDTYRLSRLLLRLPALRLMNATITEELFFKGLIGNVRIDSVIPHILKMEPADYNSQIIGHSL
# Variants of: B1
# Conditions: with pias1_mouse Pias1, O88907
# Chain of pias1_mouse Pias1, O88907 (O88907 whole entry): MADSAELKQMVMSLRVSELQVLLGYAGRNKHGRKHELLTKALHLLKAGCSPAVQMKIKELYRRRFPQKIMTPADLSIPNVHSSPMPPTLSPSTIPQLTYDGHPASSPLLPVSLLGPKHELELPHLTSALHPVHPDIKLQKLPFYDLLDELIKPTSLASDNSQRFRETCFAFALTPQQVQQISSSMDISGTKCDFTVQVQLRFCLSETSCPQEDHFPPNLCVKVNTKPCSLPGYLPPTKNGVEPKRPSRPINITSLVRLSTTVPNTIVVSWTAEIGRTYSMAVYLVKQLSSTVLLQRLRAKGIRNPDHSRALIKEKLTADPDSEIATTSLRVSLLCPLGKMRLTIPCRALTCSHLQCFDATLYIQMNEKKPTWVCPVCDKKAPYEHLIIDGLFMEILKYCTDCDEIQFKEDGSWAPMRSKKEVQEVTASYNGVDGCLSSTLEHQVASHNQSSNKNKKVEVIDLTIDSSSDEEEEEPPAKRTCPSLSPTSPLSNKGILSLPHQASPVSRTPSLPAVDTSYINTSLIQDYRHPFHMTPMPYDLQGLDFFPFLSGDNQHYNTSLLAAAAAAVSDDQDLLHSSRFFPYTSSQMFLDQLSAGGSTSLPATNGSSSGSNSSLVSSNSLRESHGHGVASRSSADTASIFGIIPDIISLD
row,Variant,effect of a mutation on the interaction
1,MATIEEIAHQIIDQQMGEIVTEQQTGQKIQIVTALDHSTQGKQFILANHEGSTPGKVFLTTPDAAGVNQLFFTSPDLSAPHLQLLTEKSPDQGPNKVFDLCVVCGDKASGRHYGAITCEGCKGFFKRSIRKNLVYSCRGSKDCVINKHHRNRCQYCRLQRCIAFGMKQDSVQCERKPIEVSREKSSNCAASTEKIYIRKDLRSPLAATPTFVTDSETARSAGLLDSGMFVNIHPSGIATEPAMLMAPDKAESCQGDLSTLASVVTSLANLGKAKDLSHCGGDMPVVQSLRNGDTSFGAFHHDIQTNGDVSRAFDTLAKALTPGESSACQSPEEGMEGSPHLIAGEPSFVEKEGPLLSESHVAFRLTMPSPMPEYLNVHYIGESASRLLFLSMHWALSIPSFQALGQENSISLVKAYWNELFTLGLAQCWQVMNVATILATFVNCLHSSLQQDKMSPERRKSLMEHIFKLQEFCNSMVKLCIDGHEYAYLKAIVLFSPDHPGLENMELIERFQEKAYVEFQDYITRTYPDDTYRLSRLLLRLPALRLMNATITEELFFKGLIGNVRIDSVIPHILKMEPADYNSQIIGHSL [K238A],decreasing interaction
